Laboratory results from publication PMC6929039.
“And” between values parts separate entries of the source, which are not always exact repeats. Equal entries are not always repeated.

Columns and labels:
[1] = target: Concanavalin A (Con A) internal_change (UniProt P02866); assay: BLI; conditions: after the 20-nt 5' primer: every T = mannose-clicked C8-alkyne-dU (4), binding buffer, salt, pH and temperature not given in the material (hemagglutination: 30 min preincubation at RT)
[2] = target: Concanavalin A (Con A) internal_change (UniProt P02866); assay: particle flow cytometry; conditions: after the 20-nt 5' primer: every T = mannose-clicked C8-alkyne-dU (4), binding buffer, salt, pH and temperature not given in the material (hemagglutination: 30 min preincubation at RT)
[3] = every C = 5-formyl-dC (2), primer unmodified

Row | Sequence | Kd [1, 3] | Kd [2, 3] | Kd ([1]; C natural) | Kd ([2]; C natural)
1 | GATCCCAGTCCGAAGTAATCGTTGCATCTGCACGACTGGTGAGCTTGAGTGGCAGAAGAACTTGTGCAAACGGCTATAGG [ConA-3-1] | 5.8 nM | 20 nM |  | 
2 | GATCCCAGTCCGAAGTAATCGTTGCATCTGCACGACTGGTGAGCTTGAGTGGCAGAAGAACTTGTGCAAACGGCTATAGG [ConA-3-1m] |  |  | 3.2 nM and 5.3 nM | 17 nM
